Test results: patent US20230279137A1 (EVOTEC INTERNATIONAL, published 2023)
Changes are numbered by the printed parent chain.

T1: human IFNγ receptor on HEK-Blue IFN-γ cells (human, UniProt P15260 18-489; P38484 22-337)
T1 sequence (looked up) 1: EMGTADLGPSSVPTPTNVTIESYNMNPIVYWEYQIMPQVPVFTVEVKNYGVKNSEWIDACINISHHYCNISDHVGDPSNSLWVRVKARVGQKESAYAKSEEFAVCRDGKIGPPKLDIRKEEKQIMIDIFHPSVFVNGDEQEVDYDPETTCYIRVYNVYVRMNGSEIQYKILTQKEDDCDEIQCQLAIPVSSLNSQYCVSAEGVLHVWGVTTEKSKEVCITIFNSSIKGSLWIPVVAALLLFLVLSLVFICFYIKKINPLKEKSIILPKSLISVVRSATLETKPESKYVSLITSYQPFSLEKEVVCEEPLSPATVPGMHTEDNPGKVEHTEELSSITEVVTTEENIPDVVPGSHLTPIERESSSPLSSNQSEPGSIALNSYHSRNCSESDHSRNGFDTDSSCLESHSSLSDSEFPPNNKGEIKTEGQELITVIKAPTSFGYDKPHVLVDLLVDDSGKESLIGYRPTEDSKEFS
T1 sequence (looked up) 2: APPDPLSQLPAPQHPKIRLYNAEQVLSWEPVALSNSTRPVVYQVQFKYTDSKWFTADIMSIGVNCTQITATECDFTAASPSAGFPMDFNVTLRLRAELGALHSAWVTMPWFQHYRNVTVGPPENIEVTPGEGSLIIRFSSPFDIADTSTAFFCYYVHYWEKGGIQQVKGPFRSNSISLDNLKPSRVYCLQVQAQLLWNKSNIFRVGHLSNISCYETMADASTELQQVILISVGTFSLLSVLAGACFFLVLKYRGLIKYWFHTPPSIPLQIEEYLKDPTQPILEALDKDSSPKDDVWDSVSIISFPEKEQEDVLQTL

T2: human type I IFN receptor on HEK-Blue IFN-α/β cells (human, UniProt P17181 28-557; P48551 27-515)
T2 sequence (looked up) 1: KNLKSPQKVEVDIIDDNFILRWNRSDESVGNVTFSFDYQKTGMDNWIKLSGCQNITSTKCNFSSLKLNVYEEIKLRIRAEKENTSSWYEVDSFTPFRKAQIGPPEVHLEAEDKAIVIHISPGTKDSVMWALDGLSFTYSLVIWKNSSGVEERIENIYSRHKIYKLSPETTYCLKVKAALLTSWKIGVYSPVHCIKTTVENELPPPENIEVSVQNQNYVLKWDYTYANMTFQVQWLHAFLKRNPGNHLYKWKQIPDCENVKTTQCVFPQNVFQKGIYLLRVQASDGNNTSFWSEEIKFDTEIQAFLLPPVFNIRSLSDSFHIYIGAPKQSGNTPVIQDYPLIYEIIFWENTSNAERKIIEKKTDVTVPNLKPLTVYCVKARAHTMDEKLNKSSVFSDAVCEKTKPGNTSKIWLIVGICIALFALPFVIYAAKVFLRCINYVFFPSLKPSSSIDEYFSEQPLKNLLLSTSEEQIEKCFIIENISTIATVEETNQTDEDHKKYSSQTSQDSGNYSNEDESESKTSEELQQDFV
T2 sequence (looked up) 2: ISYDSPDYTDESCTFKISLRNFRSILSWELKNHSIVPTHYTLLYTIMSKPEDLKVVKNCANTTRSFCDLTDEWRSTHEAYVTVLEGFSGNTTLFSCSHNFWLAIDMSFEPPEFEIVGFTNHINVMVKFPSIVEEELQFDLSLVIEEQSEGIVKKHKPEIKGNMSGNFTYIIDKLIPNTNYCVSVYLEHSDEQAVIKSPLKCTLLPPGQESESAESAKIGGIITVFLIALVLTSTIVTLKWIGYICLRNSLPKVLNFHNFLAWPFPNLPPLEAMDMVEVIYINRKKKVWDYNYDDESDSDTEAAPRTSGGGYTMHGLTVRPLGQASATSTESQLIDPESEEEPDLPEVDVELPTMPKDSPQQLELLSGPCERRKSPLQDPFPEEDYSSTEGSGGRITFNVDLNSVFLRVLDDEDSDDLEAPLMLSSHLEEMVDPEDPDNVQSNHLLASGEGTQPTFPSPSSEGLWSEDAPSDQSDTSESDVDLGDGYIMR

B1: agonistic anti-CD40 antibody CP870,893 (antibody, human IgG2, kappa)
heavy: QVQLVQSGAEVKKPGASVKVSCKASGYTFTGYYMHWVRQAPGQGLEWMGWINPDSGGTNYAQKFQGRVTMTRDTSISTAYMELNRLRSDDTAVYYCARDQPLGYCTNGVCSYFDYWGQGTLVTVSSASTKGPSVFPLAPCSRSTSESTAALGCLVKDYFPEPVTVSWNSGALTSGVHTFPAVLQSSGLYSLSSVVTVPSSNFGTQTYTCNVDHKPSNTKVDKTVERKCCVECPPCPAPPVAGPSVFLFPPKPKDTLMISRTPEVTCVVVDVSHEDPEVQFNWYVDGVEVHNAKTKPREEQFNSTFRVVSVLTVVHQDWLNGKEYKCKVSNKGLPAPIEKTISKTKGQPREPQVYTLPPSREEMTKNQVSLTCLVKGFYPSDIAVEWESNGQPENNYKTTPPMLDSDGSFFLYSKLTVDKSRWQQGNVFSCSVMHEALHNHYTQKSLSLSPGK
light: DIQMTQSPSSVSASVGDRVTITCRASQGIYSWLAWYQQKPGKAPNLLIYTASTLQSGVPSRFSGSGSGTDFTLTISSLQPEDFATYYCQQANIFPLTFGGGTKVEIKRTVAAPSVFIFPPSDEQLKSGTASVVCLLNNFYPREAKVQWKVDNALQSGNSQESVTEQDSKDSTYSLSSTLTLSKADYEKHKVYACEVTHQGLSSPVTKSFNRGEC
B2: IFA42 (antibody, human IgG2, kappa)
light: DIQMTQSPSSVSASVGDRVTITCRASQGIYSWLAWYQQKPGKAPNLLIYTASTLQSGVPSRFSGSGSGTDFTLTISSLQPEDFATYYCQQANIFPLTFGGGTKVEIKRTVAAPSVFIFPPSDEQLKSGTASVVCLLNNFYPREAKVQWKVDNALQSGNSQESVTEQDSKDSTYSLSSTLTLSKADYEKHKVYACEVTHQGLSSPVTKSFNRGECGGGGSGGGGSGGGGSGGGGSQDPYVKEAENLKKYFNAGHSDVADNGTLFLGILKNWKEESDRKIMQSQIVSFYFKLFKNFKDDQSIQKSVETIKEDMNVKFFNSNKKKRDDFEKLTNYSVTDLNVQRKAIHELIQVMAELSPAAKTGKRKRSQMLFRGRRASQ
heavy: not shown
B3: IFA12 (antibody, human IgG2, kappa)
light: DIQMTQSPSSVSASVGDRVTITCRASQGIYSWLAWYQQKPGKAPNLLIYTASTLQSGVPSRFSGSGSGTDFTLTISSLQPEDFATYYCQQANIFPLTFGGGTKVEIKRTVAAPSVFIFPPSDEQLKSGTASVVCLLNNFYPREAKVQWKVDNALQSGNSQESVTEQDSKDSTYSLSSTLTLSKADYEKHKVYACEVTHQGLSSPVTKSFNRGECPAPAMSYNLLGFLQRSSNFQCQKLLWQLNGRLEYCLKDRMNFDIPEEIKQLQQFQKEDAALTIYEMLQNIFAIFRQDSSSTGWNETIVENLLANVYHQINHLKTVLEEKLEKEDFTRGKLMSSLHLKRYYGRILHYLKAKEYSHCAWTIVRVEILRNFYFINRLTGYLRN
heavy: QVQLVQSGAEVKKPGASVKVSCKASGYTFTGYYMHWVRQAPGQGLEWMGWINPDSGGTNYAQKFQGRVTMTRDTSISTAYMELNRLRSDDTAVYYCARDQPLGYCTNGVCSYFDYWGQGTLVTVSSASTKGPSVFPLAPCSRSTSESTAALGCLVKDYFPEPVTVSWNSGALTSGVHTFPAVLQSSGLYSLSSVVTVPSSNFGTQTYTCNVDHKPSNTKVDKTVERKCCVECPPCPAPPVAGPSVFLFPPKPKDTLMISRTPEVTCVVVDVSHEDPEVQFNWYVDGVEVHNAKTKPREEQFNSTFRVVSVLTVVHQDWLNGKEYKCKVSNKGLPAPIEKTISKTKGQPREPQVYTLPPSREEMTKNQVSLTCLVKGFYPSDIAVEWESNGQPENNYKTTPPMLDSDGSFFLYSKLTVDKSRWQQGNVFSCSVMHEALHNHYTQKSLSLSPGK
B4: IFA13 (antibody, human IgG2, kappa)
light: B3 light with C235S
heavy: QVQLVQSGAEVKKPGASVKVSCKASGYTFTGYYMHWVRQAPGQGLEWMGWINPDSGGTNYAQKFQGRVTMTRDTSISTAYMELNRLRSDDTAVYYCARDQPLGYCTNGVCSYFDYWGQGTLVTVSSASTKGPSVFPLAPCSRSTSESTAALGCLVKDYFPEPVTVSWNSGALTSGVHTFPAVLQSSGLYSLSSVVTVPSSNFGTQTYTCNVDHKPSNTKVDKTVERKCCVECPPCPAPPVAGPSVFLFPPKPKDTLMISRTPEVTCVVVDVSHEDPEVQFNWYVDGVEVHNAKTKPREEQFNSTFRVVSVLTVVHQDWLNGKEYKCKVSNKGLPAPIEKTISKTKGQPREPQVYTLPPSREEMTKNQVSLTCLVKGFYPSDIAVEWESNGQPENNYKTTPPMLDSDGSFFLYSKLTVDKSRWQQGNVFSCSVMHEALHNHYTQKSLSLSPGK
B5: IFA1 (antibody, human IgG2, kappa)
light: DIQMTQSPSSVSASVGDRVTITCRASQGIYSWLAWYQQKPGKAPNLLIYTASTLQSGVPSRFSGSGSGTDFTLTISSLQPEDFATYYCQQANIFPLTFGGGTKVEIKRTVAAPSVFIFPPSDEQLKSGTASVVCLLNNFYPREAKVQWKVDNALQSGNSQESVTEQDSKDSTYSLSSTLTLSKADYEKHKVYACEVTHQGLSSPVTKSFNRGECAEAAAKEAAAKAMSYNLLGFLQRSSNFQCQKLLWQLNGRLEYCLKDRMNFDIPEEIKQLQQFQKEDAALTIYEMLQNIFAIFRQDSSSTGWNETIVENLLANVYHQINHLKTVLEEKLEKEDFTRGKLMSSLHLKRYYGRILHYLKAKEYSHCAWTIVRVEILRNFYFINRLTGYLRN
heavy: not shown
B6: IFA2 (antibody, human IgG2, kappa)
light: B5 light with C243S
heavy: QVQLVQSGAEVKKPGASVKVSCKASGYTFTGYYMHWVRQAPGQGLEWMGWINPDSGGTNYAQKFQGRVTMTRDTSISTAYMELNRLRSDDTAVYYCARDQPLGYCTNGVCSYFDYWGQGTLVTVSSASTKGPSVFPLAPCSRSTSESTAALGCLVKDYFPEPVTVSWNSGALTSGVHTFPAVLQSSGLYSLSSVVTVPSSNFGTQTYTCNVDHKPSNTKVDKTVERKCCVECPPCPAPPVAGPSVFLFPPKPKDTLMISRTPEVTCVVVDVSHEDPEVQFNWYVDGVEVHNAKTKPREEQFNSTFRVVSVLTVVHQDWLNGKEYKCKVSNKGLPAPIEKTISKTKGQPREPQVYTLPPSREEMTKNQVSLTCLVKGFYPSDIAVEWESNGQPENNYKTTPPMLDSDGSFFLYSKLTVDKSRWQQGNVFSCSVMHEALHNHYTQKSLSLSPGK
B7: IFA8 (antibody, human IgG2, kappa)
heavy: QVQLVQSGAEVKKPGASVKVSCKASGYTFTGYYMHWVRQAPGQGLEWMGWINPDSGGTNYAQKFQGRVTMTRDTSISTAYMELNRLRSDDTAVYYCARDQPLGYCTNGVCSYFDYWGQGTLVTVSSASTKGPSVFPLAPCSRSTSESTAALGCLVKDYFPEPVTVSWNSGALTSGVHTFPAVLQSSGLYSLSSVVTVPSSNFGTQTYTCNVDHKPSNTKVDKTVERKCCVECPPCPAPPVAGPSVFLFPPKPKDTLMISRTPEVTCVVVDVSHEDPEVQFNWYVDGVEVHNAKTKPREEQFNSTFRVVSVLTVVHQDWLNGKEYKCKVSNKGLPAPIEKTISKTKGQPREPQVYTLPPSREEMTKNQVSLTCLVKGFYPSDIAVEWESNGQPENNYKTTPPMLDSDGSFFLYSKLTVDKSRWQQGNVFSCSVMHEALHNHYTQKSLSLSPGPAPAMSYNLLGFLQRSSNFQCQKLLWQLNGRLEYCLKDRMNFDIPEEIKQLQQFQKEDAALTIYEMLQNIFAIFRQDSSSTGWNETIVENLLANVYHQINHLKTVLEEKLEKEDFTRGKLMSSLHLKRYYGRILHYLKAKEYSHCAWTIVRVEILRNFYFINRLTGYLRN
light: B1 light
B8: IFA11 (antibody, human IgG2, kappa)
heavy: not shown
light: B1 light
B9: IFA9 (antibody, human IgG2, kappa)
heavy: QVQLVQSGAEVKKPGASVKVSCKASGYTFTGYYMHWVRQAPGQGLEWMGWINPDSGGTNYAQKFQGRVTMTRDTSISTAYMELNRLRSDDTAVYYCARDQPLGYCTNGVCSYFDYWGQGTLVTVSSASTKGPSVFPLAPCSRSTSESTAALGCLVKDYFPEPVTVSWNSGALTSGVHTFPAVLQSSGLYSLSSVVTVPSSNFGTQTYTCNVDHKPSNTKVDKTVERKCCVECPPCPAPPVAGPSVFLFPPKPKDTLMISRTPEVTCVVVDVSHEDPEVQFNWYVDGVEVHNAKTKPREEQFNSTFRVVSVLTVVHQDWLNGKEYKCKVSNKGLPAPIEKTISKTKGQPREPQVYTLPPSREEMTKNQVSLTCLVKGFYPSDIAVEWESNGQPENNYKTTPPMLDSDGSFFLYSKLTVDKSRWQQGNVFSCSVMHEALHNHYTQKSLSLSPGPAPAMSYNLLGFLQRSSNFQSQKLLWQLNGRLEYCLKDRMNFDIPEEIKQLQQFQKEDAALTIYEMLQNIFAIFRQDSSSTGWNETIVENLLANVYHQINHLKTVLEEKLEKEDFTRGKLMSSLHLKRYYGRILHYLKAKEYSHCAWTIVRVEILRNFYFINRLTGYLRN
light: B1 light
B10: IFA10 (antibody, human IgG2, kappa)
heavy: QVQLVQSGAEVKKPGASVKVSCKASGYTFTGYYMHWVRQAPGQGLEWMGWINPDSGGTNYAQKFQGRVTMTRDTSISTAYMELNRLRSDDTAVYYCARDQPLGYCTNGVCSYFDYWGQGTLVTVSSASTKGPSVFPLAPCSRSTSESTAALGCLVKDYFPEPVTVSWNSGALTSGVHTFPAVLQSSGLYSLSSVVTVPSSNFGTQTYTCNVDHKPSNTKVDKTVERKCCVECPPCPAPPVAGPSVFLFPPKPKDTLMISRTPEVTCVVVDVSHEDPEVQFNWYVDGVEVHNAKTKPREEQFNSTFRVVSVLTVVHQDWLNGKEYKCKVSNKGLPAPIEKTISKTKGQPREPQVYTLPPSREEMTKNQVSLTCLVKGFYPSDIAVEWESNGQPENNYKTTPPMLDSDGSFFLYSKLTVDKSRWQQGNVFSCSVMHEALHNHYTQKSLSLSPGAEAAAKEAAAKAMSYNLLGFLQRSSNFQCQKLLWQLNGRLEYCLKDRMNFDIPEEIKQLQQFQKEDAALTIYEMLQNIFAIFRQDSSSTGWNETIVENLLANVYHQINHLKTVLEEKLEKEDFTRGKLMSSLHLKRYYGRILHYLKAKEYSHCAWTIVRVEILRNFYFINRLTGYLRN
light: B1 light
B11: IFA20 (antibody, human IgG2, kappa)
light: DIQMTQSPSSVSASVGDRVTITCRASQGIYSWLAWYQQKPGKAPNLLIYTASTLQSGVPSRFSGSGSGTDFTLTISSLQPEDFATYYCQQANIFPLTFGGGTKVEIKRTVAAPSVFIFPPSDEQLKSGTASVVCLLNNFYPREAKVQWKVDNALQSGNSQESVTEQDSKDSTYSLSSTLTLSKADYEKHKVYACEVTHQGLSSPVTKSFNRGECAEAAAKEAAAKAAEAAAKEAAAKAMSYNLLGFLQRSSNFQSQKLLWQLNGRLEYCLKDRMNFDIPEEIKQLQQFQKEDAALTIYEMLQNIFAIFRQDSSSTGWNETIVENLLANVYHQINHLKTVLEEKLEKEDFTRGKLMSSLHLKRYYGRILHYLKAKEYSHCAWTIVRVEILRNFYFINRLTGYLRN
heavy: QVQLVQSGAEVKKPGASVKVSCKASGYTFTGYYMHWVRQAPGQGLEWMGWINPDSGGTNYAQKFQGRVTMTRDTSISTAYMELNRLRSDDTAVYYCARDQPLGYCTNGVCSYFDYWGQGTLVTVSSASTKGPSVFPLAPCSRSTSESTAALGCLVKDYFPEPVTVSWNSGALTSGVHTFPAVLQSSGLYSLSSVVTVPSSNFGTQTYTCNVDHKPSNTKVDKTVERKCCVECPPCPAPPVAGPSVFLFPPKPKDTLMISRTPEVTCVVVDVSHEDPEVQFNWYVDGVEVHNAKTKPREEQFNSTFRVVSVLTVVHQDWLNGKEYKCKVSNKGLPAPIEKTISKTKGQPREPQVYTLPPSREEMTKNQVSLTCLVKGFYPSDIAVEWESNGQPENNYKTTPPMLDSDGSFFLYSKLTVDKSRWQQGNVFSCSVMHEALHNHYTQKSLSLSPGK
B12: IFA19 (antibody, human IgG2, kappa)
light: DIQMTQSPSSVSASVGDRVTITCRASQGIYSWLAWYQQKPGKAPNLLIYTASTLQSGVPSRFSGSGSGTDFTLTISSLQPEDFATYYCQQANIFPLTFGGGTKVEIKRTVAAPSVFIFPPSDEQLKSGTASVVCLLNNFYPREAKVQWKVDNALQSGNSQESVTEQDSKDSTYSLSSTLTLSKADYEKHKVYACEVTHQGLSSPVTKSFNRGECSGGTSGSTSGTGSMSYNLLGFLQRSSNFQSQKLLWQLNGRLEYCLKDRMNFDIPEEIKQLQQFQKEDAALTIYEMLQNIFAIFRQDSSSTGWNETIVENLLANVYHQINHLKTVLEEKLEKEDFTRGKLMSSLHLKRYYGRILHYLKAKEYSHCAWTIVRVEILRNFYFINRLTGYLRN
heavy: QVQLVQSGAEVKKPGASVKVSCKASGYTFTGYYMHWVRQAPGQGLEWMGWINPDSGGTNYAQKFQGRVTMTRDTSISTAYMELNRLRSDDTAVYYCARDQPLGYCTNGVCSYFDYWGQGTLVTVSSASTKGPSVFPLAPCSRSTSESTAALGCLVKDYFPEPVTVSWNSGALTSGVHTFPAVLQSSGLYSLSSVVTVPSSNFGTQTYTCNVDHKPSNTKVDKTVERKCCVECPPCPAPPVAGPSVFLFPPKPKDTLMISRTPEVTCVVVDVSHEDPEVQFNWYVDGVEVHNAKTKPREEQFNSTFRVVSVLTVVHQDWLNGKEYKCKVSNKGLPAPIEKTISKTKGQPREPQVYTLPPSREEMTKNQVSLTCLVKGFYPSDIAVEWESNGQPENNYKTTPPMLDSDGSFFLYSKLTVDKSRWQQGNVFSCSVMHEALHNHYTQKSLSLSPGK

Molecular target: T3, human CD40 (human, UniProt P25942 21-277)
Assay: cell-based or functional assay

T3 sequence (P25942 21-277): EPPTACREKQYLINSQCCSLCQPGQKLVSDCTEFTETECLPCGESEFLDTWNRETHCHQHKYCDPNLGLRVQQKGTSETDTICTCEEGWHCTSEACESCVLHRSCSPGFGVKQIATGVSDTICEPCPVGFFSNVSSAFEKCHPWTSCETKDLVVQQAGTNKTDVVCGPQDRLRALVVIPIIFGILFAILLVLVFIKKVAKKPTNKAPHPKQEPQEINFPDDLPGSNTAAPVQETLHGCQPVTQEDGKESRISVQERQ

EC50 for agonistic CD40, HEK-Blue CD40L cells, experiment of FIG. 3 [µg/mL]	EC50 on CD40 pathway, HEK-Blue CD40L cells [µg/mL]	mean EC50 for agonistic CD40, HEK-Blue CD40L cells [µg/mL]	Binder
0.057	0.03 to 0.08	0.048	B1

Molecular target: T3, human CD40
Assay: cell-based or functional assay
Remark: another data set of the same source

CD40 EC50 (ng/mL), NFκB-SEAP reporter in HEK-Blue CD40L cells [ng/mL]	Binder
65.6	B2

Molecular target: T1, human IFNγ receptor on HEK-Blue IFN-γ …
Assay: cell-based or functional assay

IFNγ EC50 (ng/mL), reporter in HEK-Blue IFNγ cells [ng/mL]	Binder
15.4	B2

Molecular target: T3, human CD40
Assay: cell-based or functional assay
Remark: another data set of the same source

CD40 EC50 (ng/mL), NFκB-SEAP reporter in HEK-Blue CD40L cells [ng/mL]	Binder
105	B3
192	B4
74.1	B5
111	B6
39.7	B7
42.8	B8
42.6	B9
26.5	B10
182	B11
110	B12

Molecular target: T2, human type I IFN receptor on HEK-Blue …
Assay: cell-based or functional assay

IFNβ EC50 (ng/mL), SEAP reporter in HEK-Blue IFN-α/β cells [ng/mL]	Binder
3.64	B3
0.7	B4
1.64	B5
0.14	B6
2.9	B7
1.78	B8
0.7	B9
4.5	B10
2.34	B11
1.3	B12
